In patent publication US10428140B2, “Anti-EphA4 antibody” (EISAI R&D MANAGEMENT CO., LTD., priority 2015, dated 2019):

B1: antibody A: mouse anti-EphA4 monoclonal antibody, IgG1/κ; heavy chain variable region SEQ ID NO: 11, light chain variable region SEQ ID NO: 13 (antibody, listed as Mus musculus, V domains shown)
VH: QIQLVQSGPELKKPGETVKISCKASGYTFTDYSMHWVKQAPGKGLKWMGWINTETGEPTYADDFKGRFAFSLETSASTAYLQINNLKNEDTATYFCARIPLYYYGSRYWYFDVWGAGTTVTVSS
VL: DIQMTQSPASLSVSVGETVTITCRASENIYRNLAWYQQKQGKSPQLLVYAATNLADGVPSRFSGSGSGTQYSLKINSLQSEDFGSYYCQHFWGTPWTFGGGTKLEIK
B2: 69 (antibody, V domains shown)
VH: QIQLVQSGSELKKPGASVKVSCKASGYTFTDYSMHWVRQAPGQGLKWMGWINTETGEPTYADDFKGRFVFSLDTSVSTAYLQISSLKAEDTAVYYCARIPLYYYGSRYWYFDVWGQGTTVTVSS
VL: DIQMTQSPSSLSASVGDRVTITCRASENIYRNLAWYQQKPGKAPKLLVYAATNLADGVPSRFSGSGSGTDYTLTISSLQPEDFATYYCQHFWGTPWTFGQGTKVEIK
modifications: synthetic humanized antibody heavy chain variable region sequence; synthetic humanized antibody light chain variable region sequence
B3: 81 (antibody, V domains shown)
VL: DIQMTQSPSSLSASVGDRVTITCRASENIYRNLAWYQQKPGKAPKLLLYAATNLADGVPSRFSGSGSGTDYTLTISSLQSEDFATYYCQHFWGTPWTFGQGTKVEIK
VH: QVQLVQSGSELKKPGASVKVSCKASGYTFTDYSMHWVRQAPGQGLEWMGWINTETGEPTYAQGFTGRFVFSLDTSVSTAYLQISSLKAEDTAVYYCARIPLYYYGSRYWYFDVWGQGTTVTVSS
modifications: constant regions without entry; synthetic humanized antibody light chain variable region sequence; synthetic humanized antibody heavy chain variable region sequence
B4: 82 (antibody, V domains shown)
VL: DIQMTQSPSSLSASVGDRVTITCRASENIYRNLAWYQQKPGKAPKLLLYAATNLADGVPSRFSGSGSGTDYTLTISSLQSEDFATYYCQHFWGTPWTFGQGTKVEIK
VH: QVQLVQSGSELKKPGASVKVSCKASGYTFTDYSMHWVRQAPGQGLKWMGWINTETGEPTYAQGFTGRFVFSLDTSVSTAYLQISSLKAEDTAVYYCARIPLYYYGSRYWYFDVWGQGTTVTVSS
modifications: constant regions without entry; synthetic humanized antibody light chain variable region sequence; synthetic humanized antibody heavy chain variable region sequence
B5: 83 (antibody, V domains shown)
VL: DIQMTQSPSSLSASVGDRVTITCRASENIYRNLAWYQQKPGKAPKLLLYAATNLADGVPSRFSGSGSGTDYTLTISSLQSEDFATYYCQHFWGTPWTFGQGTKVEIK
VH: QIQLVQSGSELKKPGASVKVSCKASGYTFTDYSMHWVRQAPGQGLKWMGWINTETGEPTYAQGFTGRFVFSLDTSVSTAYLQISSLKAEDTAVYYCARIPLYYYGSRYWYFDVWGQGTTVTVSS
modifications: constant regions without entry; synthetic humanized antibody light chain variable region sequence; synthetic humanized antibody heavy chain variable region sequence
B6: 84 (antibody, V domains shown)
VL: DIQMTQSPSSLSASVGDRVTITCRASENIYRNLAWYQQKPGKAPKLLLYAATNLADGVPSRFSGSGSGTDYTLTISSLQSEDFATYYCQHFWGTPWTFGQGTKVEIK
VH: QVQLVQSGSELKKPGASVKVSCKASGYTFTDYSMHWVRQAPGQGLEWMGWINTETGEPTYADDFKGRFVFSLDTSVSTAYLQISSLKAEDTAVYYCARIPLYYYGSRYWYFDVWGQGTTVTVSS
modifications: constant regions without entry; synthetic humanized antibody light chain variable region sequence; synthetic humanized antibody heavy chain variable region sequence
B7: 85 (antibody, V domains shown)
VL: DIQMTQSPSSLSASVGDRVTITCRASENIYRNLAWYQQKPGKAPKLLLYAATNLADGVPSRFSGSGSGTDYTLTISSLQSEDFATYYCQHFWGTPWTFGQGTKVEIK
VH: QVQLVQSGSELKKPGASVKVSCKASGYTFTDYSMHWVRQAPGQGLKWMGWINTETGEPTYADDFKGRFVFSLDTSVSTAYLQISSLKAEDTAVYYCARIPLYYYGSRYWYFDVWGQGTTVTVSS
modifications: constant regions without entry; synthetic humanized antibody light chain variable region sequence; synthetic humanized antibody heavy chain variable region sequence
B8: 86 (antibody, V domains shown)
VL: DIQMTQSPSSLSASVGDRVTITCRASENIYRNLAWYQQKPGKAPKLLLYAATNLADGVPSRFSGSGSGTDYTLTISSLQSEDFATYYCQHFWGTPWTFGQGTKVEIK
VH: QIQLVQSGSELKKPGASVKVSCKASGYTFTDYSMHWVRQAPGQGLKWMGWINTETGEPTYADDFKGRFVFSLDTSVSTAYLQISSLKAEDTAVYYCARIPLYYYGSRYWYFDVWGQGTTVTVSS
modifications: constant regions without entry; synthetic humanized antibody light chain variable region sequence; synthetic humanized antibody heavy chain variable region sequence
B9: 156 (antibody, V domains shown)
VH: QIQLVQSGSELKKPGASVKVSCKASGYTFTDYSMHWVRQAPGQGLKWMGWINTETGEPTYAQGFTGRFVFSLDTSVSTAYLQISSLKAEDTAVYYCARIPLYYYGSRYWYFDVWGQGTTVTVSS
VL: DIQMTQSPSSLSASVGDRVTITCRASENIYRNLAWYQQKPGKAPQLLLYAATNLADGVPSRFSGSGSGTDYTLTISSLQPEDFATYYCQHFWGTPWTFGQGTKVEIK
modifications: synthetic humanized antibody heavy chain variable region sequence; synthetic humanized antibody light chain variable region sequence
B10: 136 (antibody, V domains shown)
VH: QVQLVQSGSELKKPGASVKVSCKASGYTFTDYSMHWVRQAPGQGLKWMGWINTETGEPTYADDFKGRFVFSLDTSVSTAYLQISSLKAEDTAVYYCARIPLYYYGSRYWYFDVWGQGTTVTVSS
VL: EIVMTQSPATLSVSPGERATLSCRASENIYRNLAWYQQKPGQSPRLLIYAATNLADGIPARFSGSGSGTEYTLTISSLQSEDFAVYYCQHFWGTPWTFGQGTKVEIK
modifications: synthetic humanized antibody heavy chain variable region sequence; synthetic humanized antibody light chain variable region sequence

Tests used:
human EphA4 = target: T1, human EphA4 (Homo sapiens, UniProt P54764); assay: Affinity of humanized antibodies by SPR (Biacore T200); type: binding; settings: human EphA4 extracellular region-SEAP-His; for ka / kd: 1:1 binding model; for Kd: KD=kd/ka
T1 construct: made in house; not restated for the human SEAP-His protein
T1 sequence (P54764 20-547): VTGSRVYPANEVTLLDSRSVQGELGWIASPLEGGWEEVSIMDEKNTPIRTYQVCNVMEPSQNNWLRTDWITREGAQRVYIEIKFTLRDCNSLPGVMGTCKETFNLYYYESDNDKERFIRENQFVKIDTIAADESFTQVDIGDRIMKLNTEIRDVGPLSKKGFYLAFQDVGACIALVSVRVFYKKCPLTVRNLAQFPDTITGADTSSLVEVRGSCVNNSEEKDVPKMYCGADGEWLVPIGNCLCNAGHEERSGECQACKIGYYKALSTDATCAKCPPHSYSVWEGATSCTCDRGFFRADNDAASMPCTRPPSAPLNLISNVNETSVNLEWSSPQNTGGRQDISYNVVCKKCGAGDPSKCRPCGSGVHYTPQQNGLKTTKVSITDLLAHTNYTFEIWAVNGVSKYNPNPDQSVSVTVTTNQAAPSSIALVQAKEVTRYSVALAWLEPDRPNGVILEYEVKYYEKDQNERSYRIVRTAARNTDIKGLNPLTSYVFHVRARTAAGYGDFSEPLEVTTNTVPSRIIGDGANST
Protocol: The binding affinity of each anti-EphA4 monoclonal humanized antibody obtained in Example 16 for human EphA4 was determined by surface plasmon resonance (SPR) using Biacore T200 (GE Healthcare). First, for the assay of antibody A, a rat anti-mouse IgG1 antibody produced with a conventional method by immunizing rat with mouse IgG1 antibody was immobilized on sensor chip CM5. The immobilization of the rat anti-mouse IgG1 antibody on sensor chip CM5 was performed by the amine coupling method using N-hydroxysuccinimide (NHS) and N-ethyl-N′-(3-dimethylaminopropyl)carbodiimide hydrochloride (EDC). Ethanolamine was used in blocking (the sensor chip and the reagents for immobilization were all manufactured by GE Healthcare). The antibody was diluted with a buffer solution for immobilization (10 mM sodium acetate, pH 4.5) and immobilized on the sensor chip according to the protocol attached to Biacore T200. For the assay of each humanized monoclonal antibody, a protein A chip (GE Healthcare, 29-1383-03) was used. Antibody A or the humanized monoclonal antibody was diluted with a running buffer solution HBS-EP (GE Healthcare), injected onto only flow cell 2 for 120 seconds, and captured (captured amount: approximately 30 to 60 RU). Subsequently, human EphA4 extracellular region-SEAP-His protein serially diluted in the range of 50, 16.7, 5.6, 1.9, and 0.6 nM using HBS-EP was sequentially added from the lower toward higher concentration sides without regeneration operation. Binding reaction curves were sequentially observed at the time of the addition (association phase, for 120 sec) and after the completion of the addition (dissociation phase, for 900 sec). After the completion of each observation, the sensor chip was regenerated by the addition of 3 M MgCl2 (for 60 sec) or 10 mM Glycine-HCl pH 1.5 (for 30 sec). The obtained binding reaction curves were subjected to fitting analysis with 1:1 binding models using software BIA evaluation attached to the system to calculate the affinity (KD=kd/ka) for human EphA4 (Table 6).

[1] = target: T2, human EphA4 (binding to human Ephrin A5) (Homo sapiens, UniProt P54764); assay: Human EphA4-human ligand binding inhibition ELISA of humanized antibodies (biotinylated Ephrin A5-Fc); settings: biotinylated human Ephrin A5-Fc 0.7 nM
T2 construct: made in house; not restated for the human SEAP-His protein
T2 sequence (P54764 20-547): as above
Protocol: Each anti-EphA4 monoclonal humanized antibody obtained in Example 16 was evaluated for its inhibitory activity against the binding between human EphA4 and its human ligand according to the following steps. Each well of a 96-well plate (Nunc) was coated with an anti-alkaline phosphatase antibody (Thermo Fisher Scientific). After incubation overnight at 4° C., each well was blocked with 1% BlockAce (DS Pharma Biomedical) at room temperature for 1 hour. After washing with 0.05% Tween 20/PBS (Thermo Fisher Scientific) three times, the human EphA4 extracellular region-SEAP-His protein obtained by the method of Example 2 was added (final concentration: 10 nM) to each well and incubated at room temperature for 1 hour. After washing three times, a ligand and each serially diluted humanized antibody of antibody A (0, 0.003, 0.01, 0.03, 0.1, 0.3, 1, 3, 10, 30, 100, 300, 1000, and 3000 nM) were added to each well. The ligand used was biotinylated human Ephrin A5-Fc chimera (R&D Systems, final concentration: 0.7 nM). After incubation at room temperature for 1 hour and subsequent washing three times, horseradish peroxidase-labeled streptavidin (GE Healthcare) was added thereto and incubated at room temperature for 1 hour. After washing three times, a TMBZ (3,3′,5,5′-tetramethylbenzidine, Sigma-Aldrich) solution was added to each well and incubated at room temperature for 2 minutes. An equal amount of a reaction stopping solution (1N H2SO4, Wako Pure Chemical Industries) was added to each well. The absorbance at 450 nm was read using a microplate reader (PerkinElmer).

Molecule | ka (human EphA4) [M⁻¹ s⁻¹] | kd (human EphA4) [s⁻¹] | Kd (human EphA4) [nM] | IC50 [1] [nM]
B1 | 420000 | 0.00025 |  | 
B2 | 340000 | 0.00037 | 1.1 | 3.1
B3 | 340000 | 0.00054 | 1.6 | 4
B4 | 290000 | 0.00046 | 1.6 | 4.1
B5 | 290000 | 0.00054 | 1.9 | 3.7
B6 | 350000 | 0.00056 | 1.7 | 4.6
B7 | 310000 | 0.0005 | 1.6 | 4
B8 | 310000 | 0.00046 | 1.5 | 4
B9 |  |  |  | 2.5
B10 |  |  |  | 2.5
